# Laboratory results taken from the DeepSol protein solubility set.
# Experiment: soluble on expression in E. coli; label from the status in PepcDB or PDB records
row,Sequence,soluble on expression in E. coli
1,MSSNLQLVETFDSRQFVVARWNRNDTTAMVPSAIAVVVFVESVEYKLGCKEKIGYSPTPEDQDQFMILQMESIDEANRICHDSIAKGFAINNTKIVFTPLLGLNGFRLQDAIDFMKTSQPHFNNDELLEVLTMAICQELPERLKILEDGFSFIEQGVSELIQNSACEMFGSFASPVRRNGYSDIDINVESVSAPGQRVSTNVRPLNEVVANPKCLITHPLTKSELETYPQEEIIKILYRCFNENSAFKTKFEMRFLPARTPIIVFKNIEVEGMNVSYDLSVHNQISVEKASLLHEFIVKDKSKGSRMKNAMMFIVHWAKSNKLLSGDYPEEKLEVKTKLNSYIINQLVIHFVQAATNKVHVNPQAKRDSRVNEYNFDTLFGDYCKFFRELFKYYANFDFTNKAIYGKKAMQKKTLSSAHGGVEESPLMLMDPMDITHNISAKVTEDAVKLLNGLIRNALFILKQNHFHINYLLETNTMATMLMKSREPKISISTRVTDGAEHQYLSVQLPAVVITSSDLFLLLTRVLRFNVCPNEQGPSVVDLCTPTGAIFLVTSRAWVGRRNTKRALKNSRHDLTPLQIDVMCSDKYDYEEDIAELRISMSTVPGTRIRLACIDIMRGQVSEVRDAIHFLIDQFINNNYDDLEKNGVQTISRIPIAAPTWP,not soluble
2,MSSQDVLIHSDDPCHPANLICTLCKQFFHNNWCTGTGGGISIKDPNTNYYYLAPSGVQKEKMIPEDLFVMDAQTLEYLRSPKLYKPSACTPLFLACYQKKNAGAIIHTHSQNAVICSLLFGDEFRIANIEQIKAIPSGKVDPVTKKPMALSFFDTLKIPIIENMAHEDELIDDLHKTFKDYPDTCAVIVRRHGIFVWGPTIDKAKIFNEAIDYLMELAIKMYQMGIPPDCGIGEEKKHLKMASP,soluble
3,MSSRHRLDLDGSGRGDRRRSPNRRSRSRSRSPHRRSSPDRKRQIGAVGNMKIQINPYNNQPFSNRYWAIWEKRSQLPVWEYKEKFMELLRNNQCITLVGETGSGKTTQIPQWAVEFMKQQQQGQPPGQARLVACTQPRRVAAMSVATRVAEEMDVVLGQEVGYSIRFEDCISERTVLKYCTDGMLLREAMNSPLLDKYKVLILDEAHERTLATDILMGLIKEIVRNRADIKVVIMSATLDAGKFQRYFEDCPLLSVPGRTFPVEIFFTPNAEKDYLEAAIRTVIQIHMVEEVEGDILLFLTGQEEIEEACKRIDREIQALGADAGALSCIPLYSTLPPAAQQRIFEPAPPNRPNGAISRKCVISTNIAETSLTIDGVVFVIDPGFSKQKVYNPRIRVESLLVCPISKASAMQRAGRAGRTKPGKCFRLYTETAYGSEMQDQTYPEILRSNLGSVVLQLKKLGTEDLVHFDFMDPPAPETLMRALELLNYLQAINDDGELTELGSLMAEFPLDPQLAKMLITSTELNCSNEILSITAMLSVPQCWVRPNEMRTEADEAKARFAHIDGDHLTLLNVYHSFKQNQEDPQWCYDNFINYRTMKTADTVRTQLSRVMDKYNLRRVSTDFKSRDYYLNIRKALVAGFFMQVAHLERSGHYVTVKDNQLVNLHPSTVLDHKPEWALYNEFVLTTKNFIRTVTDVRPEWLLQIAPQYYDLDNFPDGDTKRKLTTVMQTLQRNAGRGY,soluble
4,MSSRLARFALSGYRIAGIAAYPFARPYLSYRAAKGKEDKRRRLERFGYASAERPRGPLVWFHAASVGETLALIPLIREIRKRDIFVLLTTGTVTSAELTRTRLGDDVIHQYVPLDIKIAVNRFLTYWAPDAAITAESEIWPVTMMELERRHIPQIRVNARLSDRSFDRWKARHDIAESLFSKLALVVAQSDLDAERFRDLGSWPVVISGNLKGDTDPPPCDEALLESYRKQVGNRKTWAAISTFDGEEKAAATVHAAIKSRNGQLTIIVPRHPERGDDVEAMLKGMNLSVARRSRNDVITPGTDIFLGDSIGEMGLYLRLTELAFVGRSLTAEGGQNPLEPAMLGCAVLSGAHVQNFREAYQKLIRAGGGRIIRDVEMLAKAVHYLLVNDNERYKMIDAGNRVIQDMRGALSSTVKALEPYINPLTVSAKLQPRSAIGSWLEHHHHHH,not soluble
5,MSSSVLSVAKFDLKKMKTVYLKVDMEYDNRKNAALAILSKLSRDLLKICSNFGGCLARPQRDLCTIMLIIDSDKLENEHLVKHLKEHHMTAFEYIFTKKIKIQIGECFVQDGFLWWKQTNLPRIRNLKFRKKFKIKNKISEIHTHCSSEGNVYIKFSAEMIRIHPFDHWILDSDERFHDFNSGPISRRIRPRWVSCLPKLGKGRIVKIHRKIPETAPFESYDQMKSYWKKTKYEFVFQYGYDLPPSEPEVYYDVLFHNGETMLYPLYCVLTGTPEVLENRVGKTMTSEALALFLKAFKEASIVICGSVLAPEDQDCQAVKAYLDVMSMSAINSSKLKKEEKVTRKSSGGGHEEHQKPYEIRKIYPKIPVGVKRSISSSSQSGLPIVKKARPGFSVSVD,not soluble
6,MSSVLRLAMRAKGFSRFLAETQAFPVKNRHFMTSSVRKTGDFEYEDPKSEDEVVNITYVLRDGTERKIRGKVGDNVMFLAHRYDIEMEGACEASLACSTCHVYVDPAFQNKLPEPLEEEDDMLDMAPALKDNSRLGCQIVLTKELDGITVTLPTMTRNFYVDGHVPKPH,not soluble
7,MSSVPSAHSEIVGALYRDHRGWLLAWLRRNVACPQRAQDLSQDTFVRLLGRDELQLPREPRAFLATIAKGLMFDYFRRAALEQAYLGELLQVPEAEQPSPEEQLLILEDLKAIDRMLGTLSSKARAAFLYNRLDGLSHGEIAERLGVSVSRVRQYLAQAVRQCYVALYGEPT,not soluble
8,MSTAFNNIRQGLSEAIAHAKGNVHGVRVHRPRQVDVKAVRAKVGMTQEQFAAQFGFSPATLRHWERGDRTPRGAALVLLNVIDRNPQAVIEALA,not soluble
9,MSTATSKFLSYVLRHAPESIGLVLDSQGWADVADLLAKANASGTPLDEAGLRAVVAESDKKRFTLSEDGRRIRAAQGHSVKVDLGQPPVEPPPQLFHGTATRFLEPILREGLRPGERQQVHLSADRTTALAVGQRHGKPVVLIVDAGQMFADGCRFYLADNGVWLTDAVPFSYLTVSADSSAENDRLEHHHHHH,soluble
10,MSTDPEEFDQAETLDQLAYEIILLTRYGVQNTPTNKREAIMDRSALILLTRLDAQGPMTVNELAESFGLNVSTVHRQLKAAIANGLIEVVDDQACPAKLHRPTELGKEKLQQELLARQQDLTRILHDWDEEDIKTHAKLLRKHNESLEEYLDMKWPRP,not soluble
11,MSTDPTPPQLTRRTAKVSIDNQTGSHFKFQVTHKYTGWDADKSDVVMFQPDEVKEIFKSVAYNTGFLTTGVDNWLVDGTMVQERTEVDNKGHQIGKKSYIEHAKFISDSRSWKQHMLTAEDDGKTTTIRVFPTEIHFISPSGESTTTFTKY,not soluble
12,MSTETHYKRQLFVILKLFIIMSFMTKCPKCPTYESKKTTNVYRHLREVHNASEAEVDQFRIQRKEGKSLTTKGSGAWKCPVCELVIPTEKGLKNHMNQKHRKKPIDPSTITLATTSPTMVSPPPKRIQLPKSTEKSLVSSVATVRAQPTQKPGGRYKCPVENCTFFKTRKELALHFSEKHDPGSELETMSFETETEFKIWLTCRQEETCSSMQISLSSHDGNRITHFRLCRHEGGQLSLGATKKGATFELSLGATN,not soluble
13,MSTGDSFETRFEKMDNLLRDPKSEVNSDCLLDGLDALVYDLDFPALRKNKNIDNFLSRYKDTINKIRDLRMKAEDYEVVKVIGRGAFGEVQLVRHKSTRKVYAMKLLSKFEMIKRSDSAFFWEERDIMAFANSPWVVQLFYAFQDDRYLYMVMEYMPGGDLVNLMSNYDVPEKWARFYTAEVVLALDAIHSMGFIHRDVKPDNMLLDKSGHLKLADFGTCMKMNKEGMVRCDTAVGTPDYISPEVLKSQGGDGYYGRECDWWSVGVFLYEMLVGDTPFYADSLVGTYSKIMNHKNSLTFPDDNDISKEAKNLICAFLTDREVRLGRNGVEEIKRHLFFKNDQWAWETLRDTVAPVVPDLSSDIDTSNFDDLEEDKGEEETFPIPKAFVGNQLPFVGFTYYSNRRYL,soluble
14,MSTIHEFPKNYERFIAQGEEALVEHNQIAALENFQQAYQLQQTPPVNQKIVQLLLEMGEADEALALAEAFQESYFENLETAAIYMQIYSQSRRFIEGYILLKQLLQTKKITLAQQKTLEQQLMQVEEAYQQLETQQIQAIKRNLLVSDQLPVYQQLANIKTSLYLPKPVFVEVAKDLVMNQALSYFAREWFIEELALLQFSEPLTFLWYDNQPQTVLLEGKTGPLNTPIYSEICTELRNRLENDDPIMLQHLEEEIRLHLAYLYPLAETVISDPTIWVLGYLATYYPEYIEKELTEAKGHQIDAVQKVQQAIRTAFTQIML,soluble
